In one assay the target is endogenous murine Rb1 (UniProt P13405). The assay can be described thus: immunoprecipitation/Western blot (anti-HA IP of E7, Rb1 immunoblot). To be noted: NIH 3T3 cells, transient expression; parent: 1. On the technique in general: Immunoblotting shows a protein as a band on a membrane.
Assay [1] has as its target retinoblastoma tumor suppressor protein RB1 (endogenous, HCT116) (UniProt P06400). The assay can be described thus: immunoprecipitation/Western blot (anti-Flag IP of E7, RB1 immunoblot). The settings on record: parent: 1.
Where [2] appears, read: HCT116 cells, transient expression.

Chain of UniProt P06400 (P06400 whole entry): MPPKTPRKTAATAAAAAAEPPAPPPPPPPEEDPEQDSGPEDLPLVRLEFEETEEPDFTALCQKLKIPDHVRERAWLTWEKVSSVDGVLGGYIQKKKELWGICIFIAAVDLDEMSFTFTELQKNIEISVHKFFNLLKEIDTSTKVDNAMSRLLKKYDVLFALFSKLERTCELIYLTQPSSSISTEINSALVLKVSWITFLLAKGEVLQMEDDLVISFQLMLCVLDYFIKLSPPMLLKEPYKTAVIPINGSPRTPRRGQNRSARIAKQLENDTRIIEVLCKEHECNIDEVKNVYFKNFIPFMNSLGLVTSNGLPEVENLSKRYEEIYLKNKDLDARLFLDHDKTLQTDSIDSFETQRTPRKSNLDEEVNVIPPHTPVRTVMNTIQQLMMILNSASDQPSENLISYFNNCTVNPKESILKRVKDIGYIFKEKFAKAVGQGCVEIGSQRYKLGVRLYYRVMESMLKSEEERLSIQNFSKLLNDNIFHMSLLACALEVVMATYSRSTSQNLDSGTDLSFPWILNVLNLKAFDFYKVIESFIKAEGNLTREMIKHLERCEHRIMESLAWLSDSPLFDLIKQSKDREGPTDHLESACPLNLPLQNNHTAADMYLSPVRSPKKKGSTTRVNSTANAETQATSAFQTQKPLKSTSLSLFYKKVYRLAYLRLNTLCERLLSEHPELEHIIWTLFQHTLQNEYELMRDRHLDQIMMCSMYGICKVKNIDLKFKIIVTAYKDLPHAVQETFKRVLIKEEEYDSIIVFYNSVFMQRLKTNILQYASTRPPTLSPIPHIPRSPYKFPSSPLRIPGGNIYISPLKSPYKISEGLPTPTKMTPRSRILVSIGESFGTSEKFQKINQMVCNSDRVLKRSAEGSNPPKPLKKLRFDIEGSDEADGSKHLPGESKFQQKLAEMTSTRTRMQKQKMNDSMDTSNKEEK
Chain of UniProt P13405 (P13405 whole entry): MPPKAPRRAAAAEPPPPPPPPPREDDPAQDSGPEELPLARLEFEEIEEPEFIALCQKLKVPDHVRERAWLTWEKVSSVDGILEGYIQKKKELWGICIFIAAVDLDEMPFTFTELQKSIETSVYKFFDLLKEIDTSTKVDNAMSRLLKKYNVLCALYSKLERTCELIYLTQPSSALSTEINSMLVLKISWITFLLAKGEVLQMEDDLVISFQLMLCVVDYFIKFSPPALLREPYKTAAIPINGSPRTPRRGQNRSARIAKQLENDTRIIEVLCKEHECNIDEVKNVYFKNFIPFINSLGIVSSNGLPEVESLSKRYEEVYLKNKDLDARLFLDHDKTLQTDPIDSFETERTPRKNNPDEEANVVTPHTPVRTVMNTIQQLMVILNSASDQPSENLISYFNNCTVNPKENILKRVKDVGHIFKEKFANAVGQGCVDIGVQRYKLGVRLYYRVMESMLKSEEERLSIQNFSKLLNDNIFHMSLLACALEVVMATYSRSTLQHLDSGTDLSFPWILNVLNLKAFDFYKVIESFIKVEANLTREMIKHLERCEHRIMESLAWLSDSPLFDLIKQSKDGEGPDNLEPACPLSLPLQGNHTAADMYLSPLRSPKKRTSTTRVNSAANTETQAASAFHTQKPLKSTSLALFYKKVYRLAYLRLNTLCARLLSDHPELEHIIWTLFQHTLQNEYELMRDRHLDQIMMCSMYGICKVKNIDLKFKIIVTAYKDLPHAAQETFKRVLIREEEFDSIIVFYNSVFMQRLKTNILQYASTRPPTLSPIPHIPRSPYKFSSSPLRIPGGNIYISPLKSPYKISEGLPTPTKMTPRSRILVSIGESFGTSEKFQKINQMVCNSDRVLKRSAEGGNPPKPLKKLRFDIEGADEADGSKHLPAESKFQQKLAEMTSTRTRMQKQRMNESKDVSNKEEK

On to “N-terminally FLAG/HA epitope-tagged MmuPV1 E7 D90A”, for which the values for the ratio to parent (with endogenous murine Rb1; in assay [1] (setting [2]); in assay [1]) were 0.02, 0.01 and 0.05, respectively.
“N-terminally FLAG/HA epitope-tagged MmuPV1 E7 D90N”: the ratio to parent in assay [1] was found to be 0.27.
Turning to “N-terminally FLAG/HA epitope-tagged MmuPV1 E7 D90T”, the ratio to parent in assay [1] was 0.07.
With “N-terminally FLAG/HA epitope-tagged MmuPV1 E7 E84R; S85R”, the ratio to parent in assay [1] (setting [2]) stood at 0.65.
Still for that read-out and setting: the same measure for “N-terminally FLAG/HA epitope-tagged MmuPV1 E7 R57D”: 0.64.

(Values after article PMC8406179.)
